The supplement of paper PMC9170038

Tested on: K4 kissing-loop RNA reporter
Test: apparent KD of K4 kissing-loop reporter; higher = weaker reporter binding
Details: Eterna round: R107; input ligand: arginine 13.2 mM
Method: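 RNA-MaP round R107: designed RNA switches with theophylline, tryptophan, arginine or FMN aptamers are transcribed on-chip within common flanks. They are titrated with a labelled K4 kissing-loop RNA reporter in RNA-MaP buffer (100 mM Tris pH 7.5, 80 mM KCl, 4 mM MgCl2), without ligand or with the indicated ligand. Median apparent KD per design.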
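Also: bound reporter read as fluorescence of individual clusters on recovered sequencing chips by microscopy, with normalized cluster intensities fitted with a binding model.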

Going from “AGACUACCACACUGUCAAUAGACAGUGAGCUAGGAUAUGCUGAUAAGCAGAAGGAGUGAUGUUCCUAGGUAGUCAAUAAAAUAAU [FmnAX 13 G29]” to “GCCGCAAGGAUAGCAGCAAUAGGCGCUCGCUAGGAUAUCUGGAAACAGAGAAGGAGCUGGAGUGAUGUUUUACCUCCUAAAAUUA”, the “apparent KD of K4 kissing-loop reporter” value rises from 462 nM to 1900 nM (4.1-fold).

Compared with “CGAGUGAUGUUCGUUUUUUACUUUUUUUGACAGGAUAUGCGGAAACGCAGAAGGGUCACCUUUGAGUUAAAAGAAGUUAUUUUUU [Ex FMN A 18]”, “GCGUCUGUCGGAAGGAGCGCACUAUGGAGUGAUGUUCCAUGACCGCACAGCUUGCGGUCAGUGCAGGUAGGUCGCCGAUAGCGUU [Diestera]” is 1.7-fold lower in “apparent KD of K4 kissing-loop reporter” value: 267 nM for the first, 157 nM for the second.

First: AAACUACGUGACGAUACCAGCUUACUCGGCAAGCCAGUGAUGUUGGUGAAAAGGAGUCAAAGCCCUUGGCAGCGUCGAAGGUUUG [Usandiat]
Second: AGUGAGUGAUGUUCACUGUACGUGUCUGAAGGAGCGACAUCGAUGUCAGGUAGGUCGCAGACAUGUCAUCUAUGGUGCGUGACCA [Arg A SS t10]
The “apparent KD of K4 kissing-loop reporter” value of the first is 1.9-fold higher: 215 nM for the first, 116 nM for the second.

Same assay, conditions: Eterna round: R107; input ligand: none

Compared with “GGAGAGGUCUUGUUUGGAUGUGAUUAAUGGCGAGGACCGGUACGGCCGCCACUCGGGUGAUGUUAGUGAUGUUGAUGUAGUGAUG [uyumullin]”, “GCGCAUGUUAAAGGAUAUAGCAGGUGAUACAAGAAAGUGAGUGAUGUUUAUGUAGAUGAUGAUAUGUUAGAAGGUUAACAAACGC [abcdefghijklmno]” is 7.1-fold higher in “apparent KD of K4 kissing-loop reporter” value: 114 nM for the first, 809 nM for the second.

Going from “AAGCAGUCACUCGCAGCCAUCGAAGAUGGGCGAGGACCGGUACGGCCGCCACUCGGAGUGAUGUUCCGCAGACUGCAAAAUAAAA” to “AAUAUCUAGUAUAUAUUUAAUAAAACAGAUACCAGUGAUAAUAGACACCCUUGGCAGCUGGACGAGUGAUGUUCGUAUAUAUUAA [JR_SSTheophyA_Sub007]”, the “apparent KD of K4 kissing-loop reporter” value falls from 350 nM to 108 nM (3.2-fold).

First: AGAACUGUCUUGGAUACCAGUGAUGUUGGUAUCGAUGUGUGAGUGCAAAGCGUCCCAGAGUGCCCUUGGCAGCUAAGACUGUUCA [#16 K4 Theophylline B Exclusion]
Second: UUUGGAGAGGGAAGGAGCGUGAAAGAGAAAGAAUAUAGUGAUGUUAUAUAGAAGAAAGAAUCACAGGUAGGUCGCCCGGAGGAGG [SSArgB.D]
The “apparent KD of K4 kissing-loop reporter” value of the first is 2.5-fold lower: 269 nM for the first, 661 nM for the second.

Going from “AGCCGAAAGGCGAGUGCUGUCACUCCGGAAGGAGCGCAGGAAACUGCAGGUAGGUCGCCGGAGUGAUGUUCCGGUGCAGCACUCA [Omei KL Arginine A Exc B v6]” to “GGAUGGUAGGCGGCCGCCACUAAAUGUGAACACAUACAAGCCAGUGAUGUUGGUAUGAUGGACAAUAGGACCGGGCCUAGAUAGA [Exclusion - Tryptophan B (Freestyle 7)]”, the “apparent KD of K4 kissing-loop reporter” value falls from 1120 nM to 555 nM (2-fold).

Compared with “AGGCACGAGCAAGGAUAUCGAGUGGAGUGAUGUUCUGCCGACCCAGGACCGCAAGGUCCUGGGUCGCGAGAAGGUGCUCGUGCCU [#2 Same State - FMN A Attempt #5 (HarryS)]”, “AGGAUCCGUCGACAAAAGUCGACAUAAUCCAAGGAUAUGACGAAAGUCAGAAGGUGGACAUAAGUCCAGUGAUGUUGGAGGAUCC [FmnA 16 #SwitchBubble #K4Late]” is 1.7-fold lower in “apparent KD of K4 kissing-loop reporter” value: 730 nM for the first, 427 nM for the second.

“UAGUCAUACAGAGGAUAUCGUAUGAGUGAUGUUCAUACGAUAUAAUCUAAUUGUAUAGAUGUUCGACGAGAAGGCUGUAUGACUA [FMN B Ex t1a]” and “UGUCAUGGAAACAUGAACGUUGAAAUAAAUCGAGGACCGGUACGGCCGCCACUCGUAUAGCGGUCAGUGAUGUUGACUGUAAUAA [KL-SSTryp-A form2 sub9]” are within 1.5-fold of each other in “apparent KD of K4 kissing-loop reporter” value: 94.9 nM for the first, 110 nM for the second.

“GUAUACAUAGAUCACCUUGUAGUGAUGUUGCGAGGACCGGUACGGCCGCCACUCGAAGUACGAAAGUACAAAGAUCUAUGUAUAC [Exclusion Trypto A - 1]” and “CAUACGCAUGGAGGAUAUGAGAUUACUCGUAUCAUUUAAUAUUCUCAGUGAUGUUGAGAUUUGGGCUCAGAAGGCCAUGUGUAUG [Ex FMN B 16]” are within 1.5-fold of each other in “apparent KD of K4 kissing-loop reporter” value: 258 nM for the first, 290 nM for the second.

Going from “CCAGAAUGAUGAAGAUGAUAAAUUACUGAAGGAGCGCAUAUAGUUGCAGGUAGGUCGCGGUGAAUAAGUAUAGUGAUGUUAUACC [SSArgA.Ac]” to “UUUGUAUAGGGAAGGAGCGUGAAUGAUAAUGAAUAUAGUGAUGUUAUAUAUAAGAAAGAAUCACAGGUAGGUCGCCCGGAUGAGU [SSArgB.L]”, the “apparent KD of K4 kissing-loop reporter” value rises from 221 nM to 477 nM (2.2-fold).

First: CGCGCGCGUUUGAGAGGGUGCGCGCGAAGUGAGGAUAUUUAGGGAGAAAGAAGGCACUAUAAAAUAUAGUGAUGUUAUAUAAGGG [SSFMNA.G]
Second: AGAUUCGACACGGCCGCCACUUCCAGUGGUCGGUGUCAUGGUGCACAUGAGUGAUGUUCAUGUGGAAGGACCGGGUGUUGAGUCU [KL-XTryp-B3 #analogue]
The “apparent KD of K4 kissing-loop reporter” value of the first is 3.7-fold higher: 382 nM for the first, 103 nM for the second.

Going from “CGCGCGGGUUGAGAGGUUCGCGCGAAUGAUACCAGUAUAUAAGAAUACCCUUGGCAGCAUAAGAAAGAUAUAGUGAUGUUGUAUA [SSTheophA.G]” to “GUAUUUCCCUCGGAUACCAGUCAUCAUGAGUAUAGUGAUGUUGUACGUCCGGAUGAUUUUGACCCUUGGCAGCCGUCUCCUUGAA [theeternabot_sameState_KL_Theo_B_49]”, the “apparent KD of K4 kissing-loop reporter” value rises from 262 nM to 593 nM (2.3-fold).

“UGGAGUUGACGAAAAGUCAACUCCUGAGAUACCAGUGACGAAAGUCACCCUUGGCAGCUCACUGCCAGUGAUGUUGGAAAAUAAA [#OpenEnded 1]” was tested, and the “apparent KD of K4 kissing-loop reporter” value was 238 nM.
